Source: article PMC2134809 (The Journal of Cell Biology, 1997)

Target: Rabbit skeletal muscle actin (rabbit, UniProt P68135 1-377)
Experiment: co-sedimentation

- Kd: 2300 ± 300 nM
- stoichiometry N: 1 actin monomer per Arp2/3-binding site
B1: Arp2/3 complex (complex)
chain 1: not shown
chain 2: not shown
chain 3: MSANIENFKDSAKLTCITCHAFNRDRTLIAICPNNNEVHIYQKQGAEWVKNAVLVEHDQAVTGIDWGHKENRIVTCSQDRNAYVWSLGADGKWKPTLVLLRITRAATHVKWSPNEEKFAVATGAKCVSVCYFEEANDWWVSKHIKLHKSTVLNVAWHPNNIFLATAASDFKARIFSAFIKGVDKRPENTPFGDKLPFGEMLAEYSCGGWVHGVSWSPSGEWLSFVSHDSAISFVNISTGREAVPQRLSLSGLPYRVLAFLNPTDIIAAGYDCNPALFRLSGQTWAFVKNVDESSAAARAAPGAAQSAMNMWQKKADLGTTSNETQLETKHQNAISGLTALAPNQFSTTAVDGKLIIWTVRA
chain 4: MILLETGSRILEEVIRQRVQSDKREAVDITLADFDGVQYHIATNATQRNLVTVSISWPCISQMKQFGTDAKVQSFYGPLVTSAETGYDYTLQFDLDNLADKDSLPGKIALFKRTVVAAPLEAVFDGKPGLPPVITINYRTNEAVYLKREGNNVAVIFSINFKDKDDIVIGKVFLQELEAARKTINNAPAVTFSQRERPLELKSVQNVYEGEDQGFVTFLLFGPHTHESRRGKTIDTIHLFRNYLHYHIKCSKAFLHTRMRLRVEELLQVLNRAKIKNANKEMKTMSGRTFKRA
chain 5: MCGMGVLPIKTKYKGPAPRYTGPADQPDIIDEAISFFKANVLFRNYEVKGPADRVLIYLTLYISQAINQMVNQSKGGAQKNLFNLAIQNFAVPGDKNFALAGFVSNPANRAEADQIRQYLTQLRQETGDRLIEAVYAFGENEPSKWWMCFSKRKFLNKNL
chain 6: METPEKPERSDAEFQQSLDARQREVNNALNTGNPGRALSAALQDPPLGCKNQQIRAVVNVLTSVKDADMQKNIDALSPTDLDTLMKYIYRGLEDGENSTSLLKWHEAVTKKGGLGCIVRALAERKAL
